According to US20200062804A1 (ADRX, published 2020):
“And” between values parts separate entries of the source, which are not always exact repeats. Equal values may be shown once. Non-standard residues stand in square brackets, D forms with d. No end group written: not given here. NMeI = CC[C@H](C)[C@H](NC)C(=O)O; hArg = N=C(N)NCCCC[C@H](N)C(=O)O

Target: T1, Nat1 (LTIITLE) (also: TFA salt)
T1 peptide: LTIITLE
Experiment: cell-based or functional assay

B1: yqwqyqr (peptide)
peptide: [dY][dQ][dW][dQ][dY][dQ][dR]
**Q.** How did the “IC50, Thiofiavin T aggregation assay” value turn out when B1 was run?
**A.** 354 nM

B2: LLIKYHR (peptide)
peptide: LLIKYHR
**Q.** For B2, which “IC50, Thiofiavin T aggregation assay” value is on record?
**A.** 248 nM and 489 nM

B3: LYIRTWH (peptide)
peptide: LYIRTWH
**Q.** With B3 as the binder, how does the “IC50, Thiofiavin T aggregation assay” value read?
**A.** 302 nM

B4: hwrwlrr (peptide)
peptide: [dH][dW][dR][dW][dL][dR][dR]
**Q.** How did the “IC50, Thiofiavin T aggregation assay” value turn out when B4 was run?
**A.** 43 nM

B5: LTIMLWH (peptide)
peptide: LTIMLWH
**Q.** Which “IC50, Thiofiavin T aggregation assay” value does the source give for B5 here?
**A.** 425 nM

B6: farwhrr (peptide)
peptide: [dF][dA][dR][dW][dH][dR][dR]
**Q.** With B6 as the binder, how does the “IC50, Thiofiavin T aggregation assay” value read?
**A.** 287 nM

B7: awrwhrr (peptide)
peptide: [dA][dW][dR][dW][dH][dR][dR]
**Q.** How did the “IC50, Thiofiavin T aggregation assay” value turn out when B7 was run?
**A.** 267 nM

B8: kqwyhwr (peptide)
peptide: [dK][dQ][dW][dY][dH][dW][dR]
**Q.** How did the “IC50, Thiofiavin T aggregation assay” value turn out when B8 was run?
**A.** 252 nM

B9: LTIRTWH (peptide)
peptide: LTIRTWH
**Q.** How did the “IC50, Thiofiavin T aggregation assay” value turn out when B9 was run?
**A.** 295 nM

B10: krwrhqr (peptide)
peptide: [dK][dR][dW][dR][dH][dQ][dR]
**Q.** B10 was tested. Which “IC50, Thiofiavin T aggregation assay” value did it give?
**A.** 245 nM

B11: RLYIRLS (peptide)
peptide: RLYIRLS
**Q.** Which “IC50, Thiofiavin T aggregation assay” value does the source give for B11 here?
**A.** 284 nM

B12: TLIIYHR (peptide)
peptide: TLIIYHR
**Q.** How did the “IC50, Thiofiavin T aggregation assay” value turn out when B12 was run?
**A.** 357 nM

B13: WTRIYLH (peptide)
peptide: WTRIYLH
**Q.** B13 was tested. Which “IC50, Thiofiavin T aggregation assay” value did it give?
**A.** 240 nM

B14: LLIKYAR (peptide)
peptide: LLIKYAR
**Q.** For B14, which “IC50, Thiofiavin T aggregation assay” value is on record?
**A.** 301 nM

B15: rfyrhhr (peptide)
peptide: [dR][dF][dY][dR][dH][dH][dR]
**Q.** Which “IC50, Thiofiavin T aggregation assay” value does the source give for B15 here?
**A.** 244 nM

B16: WTRILWH (peptide)
peptide: WTRILWH
**Q.** How did the “IC50, Thiofiavin T aggregation assay” value turn out when B16 was run?
**A.** 398 nM

B17: LYIFRHT (peptide)
peptide: LYIFRHT
**Q.** How did the “IC50, Thiofiavin T aggregation assay” value turn out when B17 was run?
**A.** 363 nM

B18: LTIRLTH (peptide)
peptide: LTIRLTH
**Q.** With B18 as the binder, how does the “IC50, Thiofiavin T aggregation assay” value read?
**A.** 329 nM

B19: fwawhrr (peptide)
peptide: [dF][dW][dA][dW][dH][dR][dR]
**Q.** For B19, which “IC50, Thiofiavin T aggregation assay” value is on record?
**A.** 239 nM

B20: IRIRHYR (peptide)
peptide: IRIRHYR
**Q.** B20 was tested. Which “IC50, Thiofiavin T aggregation assay” value did it give?
**A.** 14 nM

B21: TYIRYLR (peptide)
peptide: TYIRYLR
**Q.** With B21 as the binder, how does the “IC50, Thiofiavin T aggregation assay” value read?
**A.** 412 nM

B22: rqmqyrr (peptide)
peptide: [dR][dQ][dM][dQ][dY][dR][dR]
**Q.** B22 was tested. Which “IC50, Thiofiavin T aggregation assay” value did it give?
**A.** 236 nM

B23: fwrwhar (peptide)
peptide: [dF][dW][dR][dW][dH][dA][dR]
**Q.** Which “IC50, Thiofiavin T aggregation assay” value does the source give for B23 here?
**A.** 245 nM

B24: WYIRTYH (peptide)
peptide: WYIRTYH
**Q.** For B24, which “IC50, Thiofiavin T aggregation assay” value is on record?
**A.** 287 nM

B25: wwrrhhr (peptide)
peptide: [dW][dW][dR][dR][dH][dH][dR]
**Q.** How did the “IC50, Thiofiavin T aggregation assay” value turn out when B25 was run?
**A.** 247 nM

B26: WYIRLWK (peptide)
peptide: WYIRLWK
**Q.** Which “IC50, Thiofiavin T aggregation assay” value does the source give for B26 here?
**A.** 262 nM

B27: WYIRLTH (peptide)
peptide: WYIRLTH
**Q.** Which “IC50, Thiofiavin T aggregation assay” value does the source give for B27 here?
**A.** 369 nM

B28: IRIRRYA (peptide)
peptide: IRIRRYA
**Q.** With B28 as the binder, how does the “IC50, Thiofiavin T aggregation assay” value read?
**A.** 44 nM

B29: IRIRRAA (peptide)
peptide: IRIRRAA
**Q.** B29 was tested. Which “IC50, Thiofiavin T aggregation assay” value did it give?
**A.** 248 nM

B30: shwrrhr (peptide)
peptide: [dS][dH][dW][dR][dR][dH][dR]
**Q.** For B30, which “IC50, Thiofiavin T aggregation assay” value is on record?
**A.** 338 nM

B31: rqhyhwr (peptide)
peptide: [dR][dQ][dH][dY][dH][dW][dR]
**Q.** Which “IC50, Thiofiavin T aggregation assay” value does the source give for B31 here?
**A.** 296 nM

B32: LYIRTYH (peptide)
peptide: LYIRTYH
**Q.** How did the “IC50, Thiofiavin T aggregation assay” value turn out when B32 was run?
**A.** 257 nM and 463 nM

B33: Ile-homoArg-Ile-homoArg-Arg-Trp-Arg (peptide)
peptide: I[hArg]I[hArg]RWR
**Q.** B33 was tested. Which “IC50, Thiofiavin T aggregation assay” value did it give?
**A.** 49 nM

B34: fwrhkhr (peptide)
peptide: [dF][dW][dR][dH][dK][dH][dR]
**Q.** For B34, which “IC50, Thiofiavin T aggregation assay” value is on record?
**A.** 264 nM and 161 nM

B35: hwrwrwr (peptide)
peptide: [dH][dW][dR][dW][dR][dW][dR]
**Q.** For B35, which “IC50, Thiofiavin T aggregation assay” value is on record?
**A.** 245 nM

B36: LLIKYHA (peptide)
peptide: LLIKYHA
**Q.** For B36, which “IC50, Thiofiavin T aggregation assay” value is on record?
**A.** 234 nM

B37: WTRIYYH (peptide)
peptide: WTRIYYH
**Q.** For B37, which “IC50, Thiofiavin T aggregation assay” value is on record?
**A.** 420 nM

B38: LR(N-Me)IKYHR (peptide)
peptide: LR[NMeI]KYHR
**Q.** Which “IC50, Thiofiavin T aggregation assay” value does the source give for B38 here?
**A.** 334 nM

B39: LYIRHK (peptide)
peptide: LYIRHK
**Q.** How did the “IC50, Thiofiavin T aggregation assay” value turn out when B39 was run?
**A.** 316 nM

B40: rwrylrr (peptide)
peptide: [dR][dW][dR][dY][dL][dR][dR]
**Q.** With B40 as the binder, how does the “IC50, Thiofiavin T aggregation assay” value read?
**A.** 49 nM

B41: LTIKLWH (peptide)
peptide: LTIKLWH
**Q.** For B41, which “IC50, Thiofiavin T aggregation assay” value is on record?
**A.** 260 nM and 232 nM

B42: WYIRLWH (peptide)
peptide: WYIRLWH
**Q.** B42 was tested. Which “IC50, Thiofiavin T aggregation assay” value did it give?
**A.** 288 nM

B43: IRIARYR (peptide)
peptide: IRIARYR
**Q.** For B43, which “IC50, Thiofiavin T aggregation assay” value is on record?
**A.** 44 nM

B44: LRIRHVK (peptide)
peptide: LRIRHVK
**Q.** B44 was tested. Which “IC50, Thiofiavin T aggregation assay” value did it give?
**A.** 246 nM

B45: swrwhhr (peptide)
peptide: [dS][dW][dR][dW][dH][dH][dR]
**Q.** For B45, which “IC50, Thiofiavin T aggregation assay” value is on record?
**A.** 301 nM

B46: fwrahrr (peptide)
peptide: [dF][dW][dR][dA][dH][dR][dR]
**Q.** For B46, which “IC50, Thiofiavin T aggregation assay” value is on record?
**A.** 293 nM

B47: LLIKAHR (peptide)
peptide: LLIKAHR
**Q.** For B47, which “IC50, Thiofiavin T aggregation assay” value is on record?
**A.** 258 nM

B48: IYIYHQR (peptide)
peptide: IYIYHQR
**Q.** Which “IC50, Thiofiavin T aggregation assay” value does the source give for B48 here?
**A.** 269 nM

B49: ywqwrqs (peptide)
peptide: [dY][dW][dQ][dW][dR][dQ][dS]
**Q.** For B49, which “IC50, Thiofiavin T aggregation assay” value is on record?
**A.** 338 nM
